Laboratory results as given in the supplement of paper PMC10126150.
± gives the standard deviation of the averaged measurements.

Test system: ATP
Assay: switch fluorescence ratio, 500 uM ATP over buffer (Cy3 cluster intensity, sum of 5 cycles each) (fold (ratio)); higher = stronger signal-on switching upon ATP binding; sequences stand for … in TCGTCGGCAGCGTCAGATGTGTATAAGAGACAGTTTTTTTTTTTTTTTTTTTTTTTTT…TC
Settings: aptamer strand: ATP DNA aptamer (quencher-CACCTGGGGGAGTATTGCGGAGGAAGG + anchor), 100 nM annealed; ATP concentration: 500 uM
Outline: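 Cy3-labelled switching-strand clusters on a modified Illumina MiSeq flow-cell were annealed to 100 nM quencher-labelled ATP aptamer and imaged first in selection buffer, then after 15 min with 500 uM ATP at 22 °C. NaOH stripping and re-annealing separated each of five buffer/ATP cycles, and clusters outside 100-1000 RFU were excluded. The fluorescence ratio sums target-cycle Cy3 intensity over buffer-cycle Cy3 intensity per cluster and averages it per switch-domain sequence.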
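Also: ATP exposure 15 min at 22 °C before imaging.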

Sequence | switch fluorescence ratio
CTAGGATGTG | 0.997 ± 0.031
CTAGGATTGA | 0.992 ± 0.041
CTAGGCTTTT | 1.02 ± 0.079
CTAGGGAGAG | 0.9912 ± 0.0069
CTAGGGGATT | 1.02 ± 0.011
CTAGGGGCTG | 0.946 ± 0.025
CTAGGGGGTA | 0.971 ± 0.035
CTAGGGGGTG | 1.03 ± 0.062
CTAGGGGTTC | 1.01 ± 0.046
CTAGGGTTAT | 1.006 ± 0.0025
CTAGGTGTGG | 1.04 ± 0.057
CTAGTAGAAG | 1.01 ± 0.016
CTAGTATGTT | 0.979 ± 0.02
CTAGTCAAGA | 1.027 ± 0.0066
CTAGTCAGGT | 1.018 ± 0.0012
CTAGTCTTTT | 0.982 ± 0.031
CTAGTTAGGC | 0.9844 ± 0.0091
CTAGTTTGGA | 1 ± 0.011
CTATAACGGG | 0.981 ± 0.0067
CTATAAGTCT | 1.022 ± 0.0033
CTATAATGTT | 0.9949 ± 0.0059
CTATACGGGG | 0.976 ± 0.025
CTATAGGAGA | 1.01 ± 0.044
CTATATAAAT | 0.997 ± 0.059
CTATATAGGT | 1.014 ± 0.0069

Sequence | switch fluorescence ratio
CTATCCGGAC | 1.25 ± 0.014
CTATCCTATA | 0.988 ± 0.022
CTATCGGGTA | 0.9966 ± 0.0097
CTATCTGTAG | 0.994 ± 0.03
CTATGCAATT | 3.33 ± 0.29
CTATGCGTTT | 0.989 ± 0.025
CTATGGATAC | 1.61 ± 0.18
CTATGGGGGT | 0.997 ± 0.024
CTATGGGTCC | 1.02 ± 0.026
CTATGTATGT | 1.01 ± 0.022
CTATGTATTT | 1.002 ± 0.0011
CTATGTGATT | 1.025 ± 0.0017
CTATTGAAGT | 0.9838 ± 0.0073
CTATTGGTTT | 0.9746 ± 0.0021
CTATTGTGGA | 0.999 ± 0.019
CTATTTTGGT | 0.9784 ± 0.0079
CTCAAAAACA | 1.02 ± 0.028
CTCAAGGGGC | 1.14 ± 0.11
CTCAATACTT | 1.786 ± 0.0034
CTCACCATGA | 1.03 ± 0.035
CTCACTTGGG | 1.024 ± 0.0012
CTCAGAATAG | 1.37 ± 0.075
CTCAGAATAT | 1.046 ± 0.0086
CTCAGAGTTT | 1 ± 0.012
CTCAGGAGGG | 0.997 ± 0.047

Sequence | switch fluorescence ratio
CTCAGGCAAT | 2.61 ± 0.45
CTCAGGGGGT | 0.9759 ± 0.007
CTCAGTAGTT | 1.018 ± 0.0053
CTCAGTTTCT | 1.02 ± 0.03
CTCATAACAG | 0.996 ± 0.015
CTCATAATTT | 0.993 ± 0.037
CTCATATAGA | 0.991 ± 0.045
CTCATCGGTC | 1.02 ± 0.035
CTCATCGTTC | 0.99555 ± 0.00034
CTCCAAAGCG | 1.19 ± 0.032
CTCCATCGGG | 1.31 ± 0.033
CTCCCTTCGA | 1.17 ± 0.036
CTCCGATGAT | 3.03 ± 0.62
CTCCGTGGGA | 1.9 ± 0.68
CTCCTACAGC | 1.32 ± 0.2
CTCCTAGTTT | 1.03 ± 0.02
CTCCTCTACC | 1.64 ± 0.048
CTCCTTTTAT | 1.03 ± 0.029
CTCGAAAAAA | 1.05 ± 0.014
CTCGAAGCG | 1.04 ± 0.034
CTCGACGGGG | 0.975 ± 0.035
CTCGATTTAT | 0.9951 ± 0.0086
CTCGCCGCGG | 1.08 ± 0.038
CTCGCCGGGG | 1.06 ± 0.013
CTCGCTGCGT | 1.024 ± 0.0082

Sequence | switch fluorescence ratio
CTCGGCGCTT | 1.05 ± 0.02
CTCGGCGGAG | 1.026 ± 0.0082
CTCGGCTGGT | 1.01 ± 0.019
CTCGGGGGAT | 1.05 ± 0.1
CTCGGGGTGT | 1.02 ± 0.018
CTCGGGTATG | 0.9791 ± 0.0043
CTCGGTTCTT | 0.975 ± 0.019
CTCGTAATCT | 1.571 ± 0.007
CTCGTAGGGA | 1.01 ± 0.027
CTCGTTGCTT | 1.03 ± 0.037
CTCGTTTTGA | 0.975 ± 0.023
CTCTACGCCG | 0.9875 ± 0.0053
CTCTATCAAT | 1.254 ± 0.0064
CTCTCAAATG | 1.03 ± 0.045
CTCTCGGCCG | 1.03 ± 0.12
CTCTCTAGCT | 1.035 ± 0.01
CTCTGAGGGG | 1.16 ± 0.1
CTCTGCTCGC | 4.15 ± 0.55
CTCTGGGCGG | 0.988 ± 0.039
CTCTGGGGGC | 1.1 ± 0.062
CTCTGTACAG | 1.01 ± 0.018
CTGAAGGCCC | 1.02 ± 0.019
CTGACAGATT | 1.11 ± 0.12
CTGACGAAGG | 1.05 ± 0.029
CTGACGGATT | 1.2 ± 0.054

Sequence | switch fluorescence ratio
CTGACGTAAG | 1.26 ± 0.29
CTGAGAACTT | 0.983 ± 0.055
CTGAGAGTAC | 1.05 ± 0.07
CTGAGAGTAT | 1 ± 0.025
CTGAGGCACG | 1.09 ± 0.068
CTGAGGGAGA | 1.04 ± 0.03
CTGAGGGGT | 1.05 ± 0.037
CTGAGGGTAT | 1.006 ± 0.0098
CTGAGTAGTT | 1.01 ± 0.018
CTGAGTATAG | 1.01 ± 0.023
CTGAGTCAAT | 2.23 ± 0.042
CTGAGTCGGA | 0.983 ± 0.033
CTGAGTGATG | 1.01 ± 0.02
CTGAGTTGGG | 0.9793 ± 0.0042
CTGATAGGGA | 1.01 ± 0.019
CTGATATGCG | 0.997 ± 0.023
CTGATGTCTA | 0.977 ± 0.022
CTGATTAGGA | 0.989 ± 0.017
CTGCAATAGA | 4.41 ± 0.16
CTGCATAGGT | 1.31 ± 0.38
CTGCATCAGT | 1.04 ± 0.011
CTGCGCAAGG | 6.27 ± 0.014
CTGCGGTAAA | 0.96953 ± 0.00082
CTGCTCTGTG | 0.968 ± 0.014
CTGCTGGGGT | 1.04 ± 0.018

Sequence | switch fluorescence ratio
CTGGAAAACG | 1.008 ± 0.0046
CTGGAAAGGG | 0.96 ± 0.019
CTGGAAGGTG | 1.811 ± 0.017
CTGGACCGGC | 0.967 ± 0.014
CTGGAGGATA | 1.12 ± 0.014
CTGGAGGGGG | 1.01 ± 0.032
CTGGATAGAA | 1.01 ± 0.033
CTGGATGGTG | 0.98 ± 0.051
CTGGCAACGA | 1.06 ± 0.013
CTGGCACGGA | 1 ± 0.063
CTGGCATGGT | 1 ± 0.011
CTGGCATTTC | 1.37 ± 0.047
CTGGCCGTTT | 1.016 ± 0.01
CTGGCTAGGT | 0.988 ± 0.057
CTGGGAACGG | 0.965 ± 0.052
CTGGGAGATG | 0.99088 ± 0.00019
CTGGGAGCAC | 1.89 ± 0.15
CTGGGATTAT | 0.9755 ± 0.0074
CTGGGCAGAG | 1.02 ± 0.043
CTGGGCGGGG | 1.01 ± 0.026
CTGGGGAGGG | 1 ± 0.048
CTGGGGATTA | 0.972 ± 0.031
CTGGGGGAAT | 1.01 ± 0.013
CTGGGGGGGC | 1.01 ± 0.043
CTGGGGTATG | 0.985 ± 0.028

Sequence | switch fluorescence ratio
CTGGGGTTGC | 0.96 ± 0.03
CTGGGGTTTG | 0.956 ± 0.019
CTGGGTGTAT | 0.984 ± 0.063
CTGGGTTGGG | 1.01 ± 0.043
CTGGGTTGGT | 0.972 ± 0.024
CTGGGTTTGT | 0.981 ± 0.016
CTGGTATAGA | 1 ± 0.046
CTGGTATTCT | 0.996 ± 0.037
CTGGTGGACG | 1.041 ± 0.0042
CTGGTGTAGT | 1.03 ± 0.047
CTGGTTAGGG | 0.98 ± 0.018
CTGGTTGGGT | 1.01 ± 0.027
CTGGTTGTCT | 1.01 ± 0.006
CTGGTTTAGC | 1 ± 0.016
CTGGTTTAGG | 1 ± 0.036
CTGGTTTAGT | 0.978 ± 0.016
CTGTAAGGTT | 1.09 ± 0.14
CTGTAAGTGG | 0.989 ± 0.017
CTGTAATAAG | 1.09 ± 0.075
CTGTAGTTTT | 1.04 ± 0.038
CTGTATTGGG | 0.977 ± 0.013
CTGTCCTTTT | 1.11 ± 0.17
CTGTCGACTG | 1.04 ± 0.017
CTGTCGTATG | 0.9749 ± 0.0082
CTGTCTATGC | 1.33 ± 0.049

Sequence | switch fluorescence ratio
CTGTCTCAAG | 0.97 ± 0.059
CTGTCTGAGT | 0.9632 ± 0.007
CTGTCTGTGC | 1.09 ± 0.044
CTGTGAAAAA | 1.09 ± 0.043
CTGTGCGACA | 1.06 ± 0.053
CTGTGCTAAT | 1.1 ± 0.037
CTGTGCTGT | 1.005 ± 0.0062
CTGTGGCGCT | 1.01 ± 0.019
CTGTGGGTTG | 1 ± 0.042
CTGTGTAGTG | 0.9954 ± 0.002
CTGTGTGCGG | 0.97 ± 0.03
CTGTGTGTTC | 1.01 ± 0.026
CTGTTAGGAT | 0.99 ± 0.028
CTGTTCGCCA | 1.07 ± 0.077
CTGTTGATGG | 1 ± 0.027
CTGTTGGGGT | 0.988 ± 0.017
CTGTTGTCGG | 0.989 ± 0.038
CTGTTTGCAG | 0.987 ± 0.056
CTGTTTTACT | 1.03 ± 0.042
CTGTTTTTTT | 0.981 ± 0.039
CTTAAAAAGG | 0.989 ± 0.0056
CTTAAAGTAT | 0.9977 ± 0.0024
CTTAAATTAT | 0.9967 ± 0.0089
CTTAACAGCG | 1.01 ± 0.02
CTTAACATGC | 1.06 ± 0.049
